Test results as given in the supplement of paper PMC9112550, “Optimization of the antimicrobial peptide Bac7 by deep mutational scanning” (BMC Biology, 2022).

Tested on: Escherichia coli TOP10
Test: shrunken log2 fold change of peptide-encoding DNA abundance (4.5 h post-induction vs induction); higher = less antimicrobial activity (less host growth inhibition)
Conditions: time post-induction: 4.5 h; library: site-saturation at positions 5, 18, 19, 20
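Note: peptides expressed intracellularly from a pBAD plasmid library in pooled LB shake-flask culture, induced with 0.3% L-arabinose, DNA abundance read by NGS, three biological replicates, DESeq2 with apeglm shrinkage.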

| Sequence | shrunken log2 fold change |
| --- | --- |
| RRIRPRPPRLPRPRPRPHIKPRP | -0.454 |
| RRIRDRPPRLPRPRPRPMLDPRP | -0.0254 |
| RRIRGRPPRLPRPRPRPRVSPRP | 0.45 |
| RRIRYRPPRLPRPRPRPDFTPRP | -0.0212 |
| RRIRRRPPRLPRPRPRPFHDPRP | -0.307 |
| RRIRDRPPRLPRPRPRPIFTPRP | -0.0502 |
| RRIRNRPPRLPRPRPRPDCDPRP | -0.132 |
| RRIRNRPPRLPRPRPRPVLPPRP | -0.11 |
| RRIRGRPPRLPRPRPRPQNAPRP | 0.00487 |
| RRIRFRPPRLPRPRPRPLISPRP | -0.178 |
| RRIRERPPRLPRPRPRPSYRPRP | 3.5 |
| RRIRERPPRLPRPRPRPVYNPRP | -0.0493 |
| RRIRVRPPRLPRPRPRPLMDPRP | -0.0628 |
| RRIRWRPPRLPRPRPRPCVVPRP | 0.0549 |
| RRIRIRPPRLPRPRPRPLRNPRP | -0.0491 |
| RRIRQRPPRLPRPRPRPQKKPRP | -0.214 |
| RRIRTRPPRLPRPRPRPLLYPRP | -0.444 |
| RRIRSRPPRLPRPRPRPEYNPRP | -0.229 |
| RRIRDRPPRLPRPRPRPMMEPRP | 0.0314 |
| RRIRKRPPRLPRPRPRPTSEPRP | 0.79 |
| RRIRERPPRLPRPRPRPTDSPRP | 0.0161 |
| RRIRRRPPRLPRPRPRPGNRPRP | -0.151 |

| Sequence | shrunken log2 fold change |
| --- | --- |
| RRIRLRPPRLPRPRPRPLPVPRP | 0.0348 |
| RRIRMRPPRLPRPRPRPCQDPRP | 0.227 |
| RRIRCRPPRLPRPRPRPKCVPRP | -0.0957 |
| RRIRNRPPRLPRPRPRPEMCPRP | 0.00911 |
| RRIRERPPRLPRPRPRPPTYPRP | -0.168 |
| RRIRQRPPRLPRPRPRPGRKPRP | 0.249 |
| RRIRSRPPRLPRPRPRPGKRPRP | -0.0142 |
| RRIRLRPPRLPRPRPRPCTGPRP | -0.0081 |
| RRIRCRPPRLPRPRPRPEIPPRP | 0.0317 |
| RRIRERPPRLPRPRPRPNFCPRP | 0.00589 |
| RRIRYRPPRLPRPRPRPYPSPRP | -0.248 |
| RRIRGRPPRLPRPRPRPYWIPRP | -0.311 |
| RRIRMRPPRLPRPRPRPKFVPRP | 0.0832 |
| RRIRQRPPRLPRPRPRPAYYPRP | -0.514 |
| RRIRIRPPRLPRPRPRPMWMPRP | -0.0849 |
| RRIRYRPPRLPRPRPRPEMRPRP | 0.0856 |
| RRIRFRPPRLPRPRPRPKHCPRP | -0.0918 |
| RRIRARPPRLPRPRPRPKRGPRP | 0.565 |
| RRIRWRPPRLPRPRPRPICYPRP | -0.214 |
| RRIRDRPPRLPRPRPRPWFQPRP | -0.0572 |
| RRIRMRPPRLPRPRPRPTCDPRP | 0.79 |
| RRIRNRPPRLPRPRPRPVLTPRP | -0.235 |

| Sequence | shrunken log2 fold change |
| --- | --- |
| RRIRNRPPRLPRPRPRPEHLPRP | 0.0408 |
| RRIRKRPPRLPRPRPRPYIWPRP | -0.126 |
| RRIRCRPPRLPRPRPRPLCWPRP | 0.132 |
| RRIRHRPPRLPRPRPRPHSPPRP | -0.468 |
| RRIRLRPPRLPRPRPRPVNTPRP | -0.186 |
| RRIRMRPPRLPRPRPRPPNLPRP | 0.0707 |
| RRIRYRPPRLPRPRPRPADWPRP | 0.0899 |
| RRIRTRPPRLPRPRPRPYPSPRP | -0.575 |
| RRIRARPPRLPRPRPRPIYCPRP | 0.241 |
| RRIRTRPPRLPRPRPRPRQCPRP | 0.153 |
| RRIRGRPPRLPRPRPRPSADPRP | 1.91 |
| RRIRYRPPRLPRPRPRPWGTPRP | -0.0285 |
| RRIRARPPRLPRPRPRPLQCPRP | 0.049 |
| RRIRIRPPRLPRPRPRPAEHPRP | 0.0405 |
| RRIRIRPPRLPRPRPRPERRPRP | 0.264 |
| RRIRRRPPRLPRPRPRPSAQPRP | 0.234 |
| RRIRLRPPRLPRPRPRPPHEPRP | 0.269 |
| RRIRYRPPRLPRPRPRPSFRPRP | -0.59 |
| RRIRSRPPRLPRPRPRPFREPRP | 0.0536 |
| RRIRLRPPRLPRPRPRPTCEPRP | 0.497 |
| RRIRERPPRLPRPRPRPLRQPRP | 0.0463 |
| RRIRPRPPRLPRPRPRPVSEPRP | -0.0288 |

| Sequence | shrunken log2 fold change |
| --- | --- |
| RRIRMRPPRLPRPRPRPTFTPRP | 0.141 |
| RRIRDRPPRLPRPRPRPFTLPRP | -0.0329 |
| RRIRVRPPRLPRPRPRPADSPRP | -0.0859 |
| RRIRCRPPRLPRPRPRPGFAPRP | 0.354 |
| RRIRCRPPRLPRPRPRPRFLPRP | -0.232 |
| RRIRARPPRLPRPRPRPYKWPRP | -0.393 |
| RRIRCRPPRLPRPRPRPIFCPRP | -0.339 |
| RRIRPRPPRLPRPRPRPPQQPRP | 0.345 |
| RRIRWRPPRLPRPRPRPNELPRP | 0.073 |
| RRIRTRPPRLPRPRPRPAKMPRP | -0.0252 |
| RRIRERPPRLPRPRPRPVSVPRP | -0.022 |
| RRIRRRPPRLPRPRPRPKHGPRP | -0.0664 |
| RRIRSRPPRLPRPRPRPSRVPRP | 0.107 |
| RRIRCRPPRLPRPRPRPTQCPRP | 0.0468 |
| RRIRWRPPRLPRPRPRPLPKPRP | 0.12 |
| RRIRNRPPRLPRPRPRPIFNPRP | -0.302 |
| RRIRIRPPRLPRPRPRPDGLPRP | 0.0731 |
| RRIRARPPRLPRPRPRPERWPRP | 0.956 |
| RRIRGRPPRLPRPRPRPPMCPRP | 0.525 |
| RRIRMRPPRLPRPRPRPSWGPRP | 0.155 |
| RRIRHRPPRLPRPRPRPTCSPRP | 0.0782 |
| RRIRTRPPRLPRPRPRPEGKPRP | 0.0733 |

| Sequence | shrunken log2 fold change |
| --- | --- |
| RRIRARPPRLPRPRPRPNICPRP | -0.0618 |
| RRIRKRPPRLPRPRPRPKHHPRP | 0.122 |
| RRIRQRPPRLPRPRPRPCCCPRP | 0.0589 |
| RRIRTRPPRLPRPRPRPMIMPRP | -0.437 |
| RRIRIRPPRLPRPRPRPDVMPRP | -0.17 |
| RRIRDRPPRLPRPRPRPACAPRP | 0.705 |
| RRIRPRPPRLPRPRPRPGKRPRP | 0.389 |
| RRIRARPPRLPRPRPRPALNPRP | 0.431 |
| RRIRQRPPRLPRPRPRPDNRPRP | -0.00104 |
| RRIRFRPPRLPRPRPRPYANPRP | -1.28 |
| RRIRWRPPRLPRPRPRPAGMPRP | 0.321 |
| RRIRARPPRLPRPRPRPHHMPRP | -0.715 |
| RRIRNRPPRLPRPRPRPTDKPRP | 0.008 |
| RRIRGRPPRLPRPRPRPSHMPRP | -0.207 |
| RRIRRRPPRLPRPRPRPGDKPRP | -0.292 |
| RRIRYRPPRLPRPRPRPIDHPRP | -0.0413 |
| RRIRNRPPRLPRPRPRPRFEPRP | 0.108 |
| RRIRPRPPRLPRPRPRPNQYPRP | -0.509 |
| RRIRFRPPRLPRPRPRPRGPPRP | 0.763 |
| RRIRDRPPRLPRPRPRPRVTPRP | -0.0173 |
| RRIRRRPPRLPRPRPRPMTRPRP | 0.315 |
